Data as given in article PMC2711036 (Molecular cell, 2009).

T1: Srs2^CΔ276 (S. cerevisiae, UniProt P12954 1-898)
T1 sequence (looked up): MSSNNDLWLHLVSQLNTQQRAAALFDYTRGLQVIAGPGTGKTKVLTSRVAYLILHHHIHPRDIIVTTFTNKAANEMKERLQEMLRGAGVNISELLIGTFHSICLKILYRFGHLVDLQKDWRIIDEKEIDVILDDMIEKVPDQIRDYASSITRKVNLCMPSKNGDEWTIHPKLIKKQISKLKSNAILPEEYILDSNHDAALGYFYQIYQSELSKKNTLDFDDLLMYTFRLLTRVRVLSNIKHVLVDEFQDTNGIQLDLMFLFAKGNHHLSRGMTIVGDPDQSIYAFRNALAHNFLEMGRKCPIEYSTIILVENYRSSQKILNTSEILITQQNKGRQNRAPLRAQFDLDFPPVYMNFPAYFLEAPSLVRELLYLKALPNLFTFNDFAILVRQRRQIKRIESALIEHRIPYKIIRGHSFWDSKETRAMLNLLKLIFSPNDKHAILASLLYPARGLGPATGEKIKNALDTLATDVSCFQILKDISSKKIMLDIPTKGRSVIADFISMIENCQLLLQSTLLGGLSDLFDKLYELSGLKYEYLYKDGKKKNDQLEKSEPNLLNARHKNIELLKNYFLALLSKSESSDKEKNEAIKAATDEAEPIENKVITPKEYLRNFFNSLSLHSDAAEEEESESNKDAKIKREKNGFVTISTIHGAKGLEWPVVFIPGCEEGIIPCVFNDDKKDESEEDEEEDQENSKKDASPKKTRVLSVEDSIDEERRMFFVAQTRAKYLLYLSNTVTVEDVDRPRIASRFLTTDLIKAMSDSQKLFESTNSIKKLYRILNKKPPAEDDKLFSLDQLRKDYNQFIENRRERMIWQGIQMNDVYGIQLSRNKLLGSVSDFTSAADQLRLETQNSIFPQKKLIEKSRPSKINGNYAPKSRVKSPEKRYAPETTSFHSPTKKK


Assays:
Srs2^CΔ276 = target: T1, Srs2^CΔ276; test: SPR
Rad51-E221D = Rad51-E221D (Saccharomyces cerevisiae, UniProt P25454 1-400, E221D); test: stopped-flow Cy3 fluorescence
Rad51 (yRad51 wild type) = Rad51 (yRad51 wild type) (Saccharomyces cerevisiae, UniProt P25454 1-400); test: stopped-flow Cy3 fluorescence

| Kd (Srs2^CΔ276) | Binder | apparent K (half saturation) (Rad51-E221D) | apparent K (half saturation) (Rad51 (yRad51 wild type)) |
| --- | --- | --- | --- |
| 15.2 ± 5 µM | Rad51 (natural protein, S. cerevisiae (yeast Rad51, yRad51), UniProt P25454 1-400, looked up) MSQVQEQHISESQLQYGNGSLMSTVPADLSQSVVDGNGNGSSEDIEATNGSGDGGGLQEQAEAQGEMEDEAYDEAALGSFVPIEKLQVNGITMADVKKLRESGLHTAEAVAYAPRKDLLEIKGISEAKADKLLNEAARLVPMGFVTAADFHMRRSELICLTTGSKNLDTLLGGGVETGSITELFGEFRTGKSQLCHTLAVTCQIPLDIGGGEGKCLYIDTEGTFRPVRLVSIAQRFGLDPDDALNNVAYARAYNADHQLRLLDAAAQMMSESRFSLIVVDSVMALYRTDFSGRGELSARQMHLAKFMRALQRLADQFGVAVVVTNQVVAQVDGGMAFNPDPKKPIGGNIMAHSSTTRLGFKKGKGCQRLCKVVDSPCLPEAECVFAIYEDGVGDPREEDE |  |  |
|  | 5'-Cy3-dT79 (ssDNA) DNA: TTTTTTTTTTTTTTTTTTTTTTTTTTTTTTTTTTTTTTTTTTTTTTTTTTTTTTTTTTTTTTTTTTTTTTTTTTTTTTT | 2.17 ± 0.6 nM as printed | 1.55 ± 0.3 nM as printed |
